Results reported in patent publication US20150258192A1, “COMPOSITIONS AND METHODS FOR PREVENTING OR TREATING CHRONIC LUNG ALLOGRAFT DYSFUNCTION (CLAD) AND IDIOPATHIC PULMONARY FIBROSIS (IPF)” (priority 2014, published 2015).
No end group written: not given here.

Biological target: Pim-1(h) (Homo sapiens, UniProt P11309)
Experiment: Kinase Profiling Assay
Assay type: biochemical
Conditions: peptide 100 μM
How it was run: (§1)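 In this 266-kinase specificity panel, every measurement was duplicated. Transfer of labeled phosphate from ATP to a cationic substrate was quantified after the substrate adhered to an anionic filter membrane and was scintillation-counted, then related to a full-activity control.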

Sequence of Pim-1(h) (P11309 whole entry): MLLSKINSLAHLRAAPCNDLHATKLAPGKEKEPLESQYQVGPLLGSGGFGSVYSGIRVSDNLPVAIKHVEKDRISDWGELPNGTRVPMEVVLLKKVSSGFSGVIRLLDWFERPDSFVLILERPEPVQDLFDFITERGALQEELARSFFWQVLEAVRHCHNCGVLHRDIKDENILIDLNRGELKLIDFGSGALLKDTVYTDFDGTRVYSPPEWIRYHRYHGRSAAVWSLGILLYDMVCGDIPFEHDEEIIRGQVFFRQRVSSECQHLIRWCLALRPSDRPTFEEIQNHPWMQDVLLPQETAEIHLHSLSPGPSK

First: FAKLAARLYRKALARQLGVAA [MMI-0300]
Second: HRRIKAWLKKIKALARQLGVAA (Mammal) [MMI-0500]
The “% activity” value of the first is higher: 8% for the first, 0% for the second.

Compared with KAFAKLAARLYRKALARQLGVAA [MMI-0400], “YARAAARQARAKALNRQLGVA (Mammal) [MMI-0200]” is higher in “% activity” value: 7% for the first, 18% for the second.

Biological target: PKCθ(h) (Homo sapiens, UniProt Q04759)
Sequence (Q04759 whole entry): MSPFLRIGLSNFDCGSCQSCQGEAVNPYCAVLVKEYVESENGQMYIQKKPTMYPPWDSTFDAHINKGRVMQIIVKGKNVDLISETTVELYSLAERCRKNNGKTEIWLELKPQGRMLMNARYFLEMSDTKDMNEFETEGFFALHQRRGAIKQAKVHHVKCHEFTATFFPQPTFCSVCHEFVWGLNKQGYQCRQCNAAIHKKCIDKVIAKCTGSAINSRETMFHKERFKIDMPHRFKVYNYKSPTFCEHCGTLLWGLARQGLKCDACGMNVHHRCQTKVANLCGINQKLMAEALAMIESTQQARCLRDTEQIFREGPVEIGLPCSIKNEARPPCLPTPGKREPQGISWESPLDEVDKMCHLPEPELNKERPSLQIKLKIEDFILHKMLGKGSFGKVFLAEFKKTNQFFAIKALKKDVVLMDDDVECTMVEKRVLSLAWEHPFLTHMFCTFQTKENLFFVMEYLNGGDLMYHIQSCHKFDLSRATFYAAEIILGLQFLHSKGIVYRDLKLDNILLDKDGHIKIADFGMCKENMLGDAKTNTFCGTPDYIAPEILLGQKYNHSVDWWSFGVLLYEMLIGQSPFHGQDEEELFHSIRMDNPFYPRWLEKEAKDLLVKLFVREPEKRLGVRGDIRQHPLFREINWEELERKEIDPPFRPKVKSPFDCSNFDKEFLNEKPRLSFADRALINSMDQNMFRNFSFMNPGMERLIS
Experiment: Kinase Profiling Assay
Assay type: biochemical
Conditions: peptide 100 μM
How it was run: as §1

Going from FAKLAARLYRKALARQLGVAA [MMI-0300] to “HRRIKAWLKKIKALARQLGVAA (Mammal) [MMI-0500]”, the “% activity” value falls from 88% to 62%.

First: KAFAKLAARLYRKALARQLGVAA [MMI-0400]
Second: YARAAARQARAKALNRQLGVA (Mammal) [MMI-0200]
The “% activity” value of the first is lower: 76% for the first, 101% for the second.

Biological target: PKCγ(h) (Homo sapiens, UniProt P05129)
Experiment: Kinase Profiling Assay
Assay type: biochemical
Conditions: peptide 100 μM
How it was run: as §1

First: FAKLAARLYRKALARQLGVAA [MMI-0300]
Second: HRRIKAWLKKIKALARQLGVAA (Mammal) [MMI-0500]
The “% activity” value of the first is higher: 89% for the first, 6% for the second.

Compared with KAFAKLAARLYRKALARQLGVAA [MMI-0400], “YARAAARQARAKALNRQLGVA (Mammal) [MMI-0200]” is higher in “% activity” value: 79% for the first, 101% for the second.

Biological target: T1, PKCε(h) (Homo sapiens, UniProt Q02156)
T1 sequence (Q02156 1-737): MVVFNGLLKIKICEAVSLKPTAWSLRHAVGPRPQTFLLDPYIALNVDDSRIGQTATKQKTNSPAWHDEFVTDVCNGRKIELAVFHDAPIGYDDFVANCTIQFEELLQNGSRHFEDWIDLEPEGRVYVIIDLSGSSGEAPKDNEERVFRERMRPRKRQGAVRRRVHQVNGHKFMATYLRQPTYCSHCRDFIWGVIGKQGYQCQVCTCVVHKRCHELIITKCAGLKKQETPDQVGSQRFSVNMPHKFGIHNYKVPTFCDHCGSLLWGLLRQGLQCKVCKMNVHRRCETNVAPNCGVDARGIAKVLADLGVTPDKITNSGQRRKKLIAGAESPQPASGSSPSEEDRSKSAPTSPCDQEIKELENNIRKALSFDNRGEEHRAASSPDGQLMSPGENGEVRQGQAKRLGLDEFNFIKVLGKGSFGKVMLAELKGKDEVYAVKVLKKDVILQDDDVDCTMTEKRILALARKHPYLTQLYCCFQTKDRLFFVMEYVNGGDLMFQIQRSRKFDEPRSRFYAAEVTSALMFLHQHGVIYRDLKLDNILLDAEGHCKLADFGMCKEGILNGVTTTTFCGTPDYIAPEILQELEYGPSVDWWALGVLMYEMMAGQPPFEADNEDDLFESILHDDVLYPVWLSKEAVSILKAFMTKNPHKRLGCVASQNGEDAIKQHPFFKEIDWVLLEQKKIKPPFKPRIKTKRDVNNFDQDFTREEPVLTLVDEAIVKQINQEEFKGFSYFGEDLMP
Experiment: Kinase Profiling Assay
Assay type: biochemical
Conditions: peptide 100 μM
How it was run: as §1

Compared with FAKLAARLYRKALARQLGVAA [MMI-0300], “HRRIKAWLKKIKALARQLGVAA (Mammal) [MMI-0500]” is lower in “% activity” value: 79% for the first, 23% for the second.

First: KAFAKLAARLYRKALARQLGVAA [MMI-0400]
Second: YARAAARQARAKALNRQLGVA (Mammal) [MMI-0200]
The “% activity” value of the first is lower: 59% for the first, 98% for the second.

Biological target: T2, SRPK1(h) (Homo sapiens, UniProt Q96SB4)
T2 construct: purchased Millipore
T2 sequence (Q96SB4 whole entry): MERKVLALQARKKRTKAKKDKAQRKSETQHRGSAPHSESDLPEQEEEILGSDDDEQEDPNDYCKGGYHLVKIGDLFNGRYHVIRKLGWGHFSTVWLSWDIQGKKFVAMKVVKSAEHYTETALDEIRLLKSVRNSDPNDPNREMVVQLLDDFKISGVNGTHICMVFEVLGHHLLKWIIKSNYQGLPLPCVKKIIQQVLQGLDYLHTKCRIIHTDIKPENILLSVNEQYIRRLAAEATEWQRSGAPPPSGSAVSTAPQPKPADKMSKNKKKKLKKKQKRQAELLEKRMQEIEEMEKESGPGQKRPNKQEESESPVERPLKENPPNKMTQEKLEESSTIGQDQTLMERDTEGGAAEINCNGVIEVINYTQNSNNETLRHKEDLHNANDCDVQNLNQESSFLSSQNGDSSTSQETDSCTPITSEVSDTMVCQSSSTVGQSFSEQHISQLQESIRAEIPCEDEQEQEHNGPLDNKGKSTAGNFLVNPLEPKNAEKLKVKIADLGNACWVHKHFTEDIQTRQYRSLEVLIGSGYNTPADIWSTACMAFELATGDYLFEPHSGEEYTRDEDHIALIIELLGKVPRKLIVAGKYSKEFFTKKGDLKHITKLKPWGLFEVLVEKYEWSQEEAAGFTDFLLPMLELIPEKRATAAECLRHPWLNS
Experiment: Kinase Profiling Assay
Assay type: biochemical
Conditions: peptide 100 μM
How it was run: as §1

Going from FAKLAARLYRKALARQLGVAA [MMI-0300] to “HRRIKAWLKKIKALARQLGVAA (Mammal) [MMI-0500]”, the “% activity” value falls from 90% to 80%.

Going from KAFAKLAARLYRKALARQLGVAA [MMI-0400] to YARAAARQARAKALARQLGVAA [MMI-0100], the “% activity” value falls from 96% to 69%.

In the case of “YARAAARQARAKALNRQLGVA (Mammal) [MMI-0200]”, the “% activity” value is reported as 93%.

Biological target: T3, MLCK(h) (Homo sapiens, UniProt Q9H1R3)
T3 construct: purchased Millipore
T3 sequence (Q9H1R3 2-596 limits assumed): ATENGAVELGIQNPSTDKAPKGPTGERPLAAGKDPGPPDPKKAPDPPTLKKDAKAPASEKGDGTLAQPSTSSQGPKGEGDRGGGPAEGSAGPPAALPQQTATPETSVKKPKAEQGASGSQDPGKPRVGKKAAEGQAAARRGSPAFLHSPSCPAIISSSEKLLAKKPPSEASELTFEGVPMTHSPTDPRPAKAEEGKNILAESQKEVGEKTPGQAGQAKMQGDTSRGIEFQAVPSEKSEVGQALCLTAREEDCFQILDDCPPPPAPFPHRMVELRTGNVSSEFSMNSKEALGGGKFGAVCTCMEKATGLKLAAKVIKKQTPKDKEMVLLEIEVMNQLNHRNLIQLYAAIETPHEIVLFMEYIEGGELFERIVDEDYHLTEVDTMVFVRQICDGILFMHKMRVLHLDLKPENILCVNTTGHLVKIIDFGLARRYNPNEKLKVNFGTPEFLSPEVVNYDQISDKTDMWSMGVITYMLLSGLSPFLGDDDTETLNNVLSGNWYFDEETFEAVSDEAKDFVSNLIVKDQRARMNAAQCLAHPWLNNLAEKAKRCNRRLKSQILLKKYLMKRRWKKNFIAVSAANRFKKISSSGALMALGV
Experiment: Kinase Profiling Assay
Assay type: biochemical
Conditions: peptide 100 μM
How it was run: as §1

Going from FAKLAARLYRKALARQLGVAA [MMI-0300] to “HRRIKAWLKKIKALARQLGVAA (Mammal) [MMI-0500]”, the “% activity” value falls from 2% to 0%.

Going from KAFAKLAARLYRKALARQLGVAA [MMI-0400] to YARAAARQARAKALARQLGVAA [MMI-0100], the “% activity” value rises from 1% to 85%.

Biological target: T4, Haspin(h) (Homo sapiens, UniProt Q8TF76)
T4 construct: purchased Millipore
T4 sequence (Q8TF76 1-798): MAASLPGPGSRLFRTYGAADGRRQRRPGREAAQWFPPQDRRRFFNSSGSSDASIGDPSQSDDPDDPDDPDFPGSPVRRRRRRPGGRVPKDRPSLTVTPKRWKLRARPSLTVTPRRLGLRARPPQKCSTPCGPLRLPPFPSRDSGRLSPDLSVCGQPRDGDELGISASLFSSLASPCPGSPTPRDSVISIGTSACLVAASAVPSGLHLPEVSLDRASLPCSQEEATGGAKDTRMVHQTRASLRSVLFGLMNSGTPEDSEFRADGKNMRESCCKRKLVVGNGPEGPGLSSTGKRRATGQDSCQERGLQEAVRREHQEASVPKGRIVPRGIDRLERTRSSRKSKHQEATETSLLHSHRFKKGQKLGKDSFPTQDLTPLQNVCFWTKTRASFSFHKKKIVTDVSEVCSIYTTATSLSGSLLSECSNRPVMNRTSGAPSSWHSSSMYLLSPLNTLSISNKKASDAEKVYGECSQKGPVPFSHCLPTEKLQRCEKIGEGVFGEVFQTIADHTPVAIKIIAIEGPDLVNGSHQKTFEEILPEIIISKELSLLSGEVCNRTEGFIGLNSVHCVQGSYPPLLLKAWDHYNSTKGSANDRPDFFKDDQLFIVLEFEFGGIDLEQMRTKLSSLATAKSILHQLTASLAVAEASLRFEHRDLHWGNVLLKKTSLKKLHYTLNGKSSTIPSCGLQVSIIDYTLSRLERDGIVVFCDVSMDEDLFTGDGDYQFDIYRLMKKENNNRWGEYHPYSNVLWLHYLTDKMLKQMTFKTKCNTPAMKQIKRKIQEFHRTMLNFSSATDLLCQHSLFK
Experiment: Kinase Profiling Assay
Assay type: biochemical
Conditions: peptide 100 μM
How it was run: as §1

Compared with FAKLAARLYRKALARQLGVAA [MMI-0300], “HRRIKAWLKKIKALARQLGVAA (Mammal) [MMI-0500]” is lower in “% activity” value: 48% for the first, 25% for the second.

First: KAFAKLAARLYRKALARQLGVAA [MMI-0400]
Second: YARAAARQARAKALARQLGVAA [MMI-0100]
The “% activity” value of the first is lower: 36% for the first, 127% for the second.

In the case of “YARAAARQARAKALNRQLGVA (Mammal) [MMI-0200]”, the “% activity” value is reported as 71%.

Biological target: Ron(h) (Homo sapiens, UniProt Q04912)
Experiment: Kinase Profiling Assay
Assay type: biochemical
Conditions: peptide 100 μM
How it was run: as §1

Compared with FAKLAARLYRKALARQLGVAA [MMI-0300], “HRRIKAWLKKIKALARQLGVAA (Mammal) [MMI-0500]” is lower in “% activity” value: 93% for the first, 46% for the second.

Compared with KAFAKLAARLYRKALARQLGVAA [MMI-0400], “YARAAARQARAKALNRQLGVA (Mammal) [MMI-0200]” is higher in “% activity” value: 79% for the first, 120% for the second.

Biological target: T5, MAPKAP-K2(h) (Homo sapiens, UniProt P49137)
T5 construct: purchased Millipore
T5 sequence (P49137 whole entry): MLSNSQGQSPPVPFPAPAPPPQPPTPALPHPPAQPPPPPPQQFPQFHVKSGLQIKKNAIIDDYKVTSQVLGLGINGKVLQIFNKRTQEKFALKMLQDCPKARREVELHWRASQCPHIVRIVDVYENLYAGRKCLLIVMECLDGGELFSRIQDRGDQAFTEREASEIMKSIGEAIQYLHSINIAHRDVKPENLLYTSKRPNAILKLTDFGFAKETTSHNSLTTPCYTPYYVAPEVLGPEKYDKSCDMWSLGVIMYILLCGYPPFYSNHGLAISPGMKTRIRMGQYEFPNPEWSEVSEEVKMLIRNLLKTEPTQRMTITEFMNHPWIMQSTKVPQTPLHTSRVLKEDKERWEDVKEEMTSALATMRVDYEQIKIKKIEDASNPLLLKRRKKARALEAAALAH
Experiment: Kinase Profiling Assay
Assay type: biochemical
Conditions: peptide 100 μM
How it was run: as §1

First: FAKLAARLYRKALARQLGVAA [MMI-0300]
Second: HRRIKAWLKKIKALARQLGVAA (Mammal) [MMI-0500]
The “% activity” value of the first is lower: 5% for the first, 9% for the second.

Going from KAFAKLAARLYRKALARQLGVAA [MMI-0400] to YARAAARQARAKALARQLGVAA [MMI-0100], the “% activity” value rises from 5% to 19%.

In the case of “YARAAARQARAKALNRQLGVA (Mammal) [MMI-0200]”, the “% activity” value is reported as 35%.

Biological target: cKit(h) (Homo sapiens, UniProt P10721)
Experiment: Kinase Profiling Assay
Assay type: biochemical
Conditions: peptide 100 μM
How it was run: as §1

Compared with FAKLAARLYRKALARQLGVAA [MMI-0300], “HRRIKAWLKKIKALARQLGVAA (Mammal) [MMI-0500]” is lower in “% activity” value: 53% for the first, 45% for the second.

First: KAFAKLAARLYRKALARQLGVAA [MMI-0400]
Second: YARAAARQARAKALARQLGVAA [MMI-0100]
The “% activity” value of the first is lower: 43% for the first, 95% for the second.

For “YARAAARQARAKALNRQLGVA (Mammal) [MMI-0200]”, the “% activity” value was 110%.
